# Data from patent US8686110B2, “Therapeutic pro-apoptotic BH3-like molecules and methods for generating and/or selecting the same” (The Walter and Eliza Hall Institute of Medical Research, priority 2005, dated 2014).
# Molecular target: T1, Mcl-1 (Mus musculus, UniProt P97287)
# T1 construct: GST (cleaved yes); made in house; host or cells: E. coli
# Assay: Phage ELISA (titration and competition) of phage-displayed BH3 domains
# Assay type: binding
# Details: Bak BH3 mutants; from Table 4e
# Excerpt: In order to create a FLAG-tagged form of the sequence, an oligonucleotide encoding the FLAG epitope was employed to loop-in the required sequence at the N-terminus of the peptide sequences, already fused to gene 3 as described above, using the Kunkel mutagenesis method (Kunkel et al. Methods Enzymol 204:125-139, 1991). For the alanine scanning constructs and other point mutations of the BimBH3 or other BH3 sequence, oligonucleotides with the desired codon mismatch were employed in Kunkel mutagenesis reactions on the FLAG-BimBH3 or FLAG-BadBH3 template. […]
# All ELISA's were performed as described previously (Fairlie et al. J Biol Chem 279:2125-2134, 2004). […] Following washing with PBS/Tween, bound phage were detected using a horseradish peroxidase-conjugated anti-M13 antibody. […]
# In an initial assay, the BimBH3 and other BH3 phage were tested for their ability to bind directly to immobilised Bcl-xL and Mcl-1. […] The specificity of the interactions were further assessed using a competition assay in which phage binding to the immobilised protein was competed with the corresponding recombinant protein in solution. The IC50 values obtained are as presented in Table 3 and were very similar to those determined with BimBH3 and BadBH3 synthetic peptides as measured by surface plasmon resonance on a BIAcore instrument (Chen et al. 2005 supra) and using isothermal calorimetry (unpublished data). […]
# T1 sequence (P97287 152-308 limits assumed): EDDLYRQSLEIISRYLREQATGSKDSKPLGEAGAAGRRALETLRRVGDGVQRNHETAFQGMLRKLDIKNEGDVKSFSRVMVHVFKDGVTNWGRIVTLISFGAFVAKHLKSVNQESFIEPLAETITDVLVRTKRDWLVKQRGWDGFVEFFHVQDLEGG
row,Substance,"selectivity among pro-survival proteins, in words"
1,I19A (PSSTMGQVGRQLAIIGDDANRRYDSE) [Bim I19A],selective for Mcl-1
2,V8A (PSSTMGQAGRQLAIIGDDINRRYDSE) [Bim V8A],selective for Mcl-1
